Assay results reported in paper PMC4730206, “The solution configurations of inactive and activated DntR have implications for the sliding dimer mechanism of LysR transcription factors” (Scientific Reports, 2016).

Tests used:
[1] = target: T1, DntR (DntR-His6) (Burkholderia sp. DNT, UniProt Q7WT50); test: Thermofluor thermal stability assay; type: binding; conditions: 100 µM sodium salicylate; inducer; apo-protein reference Tm in the 2nd table, row 4
T1 construct: full-length, C-terminal His6 tag (DntR-His6), recombinant, modelled to H303, homotetramer
T1 sequence (Q7WT50 1-301): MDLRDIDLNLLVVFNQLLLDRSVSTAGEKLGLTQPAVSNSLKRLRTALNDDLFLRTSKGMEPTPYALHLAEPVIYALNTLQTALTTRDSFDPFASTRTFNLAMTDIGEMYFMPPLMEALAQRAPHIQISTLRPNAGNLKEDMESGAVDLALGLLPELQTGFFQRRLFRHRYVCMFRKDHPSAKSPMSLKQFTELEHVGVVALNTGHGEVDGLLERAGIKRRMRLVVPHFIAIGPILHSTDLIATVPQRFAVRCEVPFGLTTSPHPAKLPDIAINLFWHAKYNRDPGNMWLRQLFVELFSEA
Description: Thermofluor thermal stability assay on DntR (DntR-His6)

[2] = target: DntR-His6 from Burkholderia sp. (wild type) (Burkholderia sp.) (UniProt Q7WT50); test: SAXS; static SAXS of apo-DntR pre-incubated with 100 μM sodium salicylate (holo-DntR); repeated as SEC-SAXS with 5 mM salicylate; rigid body modelling of a tetramer
[3] = target: DntR-His6 from Burkholderia sp. (wild type) (Burkholderia sp.) (UniProt Q7WT50); test: crystal structure; apo-DntR crystals, hanging drops at 18 °C, 0.2 M sodium potassium tartrate, 0.1 M Tris-HCl pH 8.0, 5% PEG 6000; space group P6(5)22, two monomers in the asymmetric unit, tetramer from two symmetry-related dimers
[4] = target: DntR-His6 from Burkholderia sp. (wild type) (Burkholderia sp.) (UniProt Q7WT50); test: SAXS; static SAXS without inducer, in 1 M NaCl, 2 mM MgSO4, 1 mM DTT, 17% glycerol, 25 mM NaH2PO4-NaOH pH 8.0; apo-DntR at 3, 1 and 0.5 mg/mL (repeated as SEC-SAXS on Superdex 200), H169T-DntR at 0.7 mg/mL; fits to tetramer models
[5] = target: H169T-DntR-His6 (Burkholderia sp.) (UniProt Q7WT50); test: as above
[6] = target: H169T-DntR-His6 (Burkholderia sp.) (UniProt Q7WT50); test: crystal structure; H169T-DntR crystals, 0.2 M sodium tartrate, 0.2 M potassium thiocyanate, 0.5 mM sodium salicylate, 0.1 M Tris pH 8.5, 20% PEG 8000; thiocyanate bound; space group P6(5)22, dimer in the asymmetric unit, tetramer from two symmetry-related dimers

Molecule: O=C(O)c1ccccc1O [salicylate]
- Tm (^oC) [1]: 51 °C

Molecule: DntR-His6 from Burkholderia sp. (wild type) (from UniProt Q7WT50 1-301) (natural protein)
- stoichiometry N [2]: 4
- stoichiometry N [3]: 4
- stoichiometry N [4]: 4

Molecule: H169T-DntR-His6 (from UniProt Q7WT50 1-301) (natural protein)
- stoichiometry N [5]: 4
- stoichiometry N [6]: 4
